Source: patent US20160068604A1 (University of Texas, published 2016)
One block for each binder: values may come before it.

Tests used:
human OX40 [1] = biological target: T1, human OX40 (human, UniProt P43489 29-277); assay: flow cytometry on L/OX40 cells, FITC goat anti-human IgG
T1 construct: whole, on cells; also called hOX40; OX40 receptor
T1 sequence (looked up): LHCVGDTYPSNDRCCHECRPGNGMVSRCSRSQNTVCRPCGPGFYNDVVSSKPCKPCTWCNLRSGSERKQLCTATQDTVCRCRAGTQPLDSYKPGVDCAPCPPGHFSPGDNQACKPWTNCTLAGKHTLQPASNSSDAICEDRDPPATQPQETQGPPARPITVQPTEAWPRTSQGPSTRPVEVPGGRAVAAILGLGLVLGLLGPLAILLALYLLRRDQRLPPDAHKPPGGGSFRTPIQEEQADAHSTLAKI
Procedure: In a typical experiment, various concentrations of Ch119-43-1 were incubated with 10⁵ L/OX40 cells in PBS containing 0.5% BSA and 0.05% NaN₃ (FACS Buffer) for 1 hour at 4° C. Cells were then washed with ice-cold FACS Buffer and subjected to incubation with FITC-labeled goat anti-human IgG antibody for 30 min at 4° C. After washing with FACS Buffer, stained cells were analyzed using a FACScan flow cytometer (BD Biosciences, San Jose, Calif.).

human OX40 [2] = biological target: T1, human OX40; assay: cell ELISA on dried L-hOX40 versus parental L cells, anti-mouse IgG Fc HRP
Procedure: In the experiment of FIG. 10, hOX40 hybridoma supernatants were screened against L-hOX40 versus L parental cells by ELISA. […] Plates were then frozen at −20° C. for at least one day before use. For antibody binding assays, frozen cells were rehydrated with PBS and washed with wash buffer containing PBS plus 0.05% Tween 20, and blocked with 2% BSA in wash buffer. Conditioned cells were then used for binding to OX40 antibody supernatants.

human OX40 [3] = biological target: T1, human OX40; assay: FACS binding assay on L/OX40 cells, PE goat anti-human IgG
human OX40 [4] = biological target: T1, human OX40; assay: FACS binding assay on L/hOX40 cells, PE goat anti-human IgG

B1: Chimeric 119-43-1 IgG1/kappa antibody (antibody, V domains shown)
VH: EVKLEESGGGLVQPGGSMKLSCAASGFTFSDAWMDWVRQSPEKGLEWVAEIRSKANNHATYYAESVNGRFTISRDDSKSSVYLQMNSLRAEDTGIYYCTWGEVFYFDYWGQGTTLTVSS
VL: DIQMTQSPSSLSASLGGKVTITCKSSQDINKYIAWYQHKPGKGPRLLIHYTSTLQPGIPSRFSGSGSGRDYSFSISNLEPEDIATYYCLQYDNLLTFGAGTKLELKR
notes: also called Ch119-43-1
EC50 (human OX40 [1]): 0.96 mg/L

B2: mouse anti-human OX40 monoclonal antibody 119-122 (antibody, V domains shown)
VH: EVQLVESGGGLVQPGESLKLSCESNEYEFPSHDMSWVRKTPEKRLELVAAINSDGGSTYYPDTMERRFIISRDNTKKTLYLQMSSLRSEDTALYYCARHYDDYYAWFAYWGQGTLVTVSA
VL: DIVLTQSPASLAVSLGQRATISCRASKSVSTSGYSYMHWYQQKPGQPPKLLIYLASNLESGVPARFSGSGSGTDFTLNIHPVEEEDAATYYCQHSRELPLTFGAGTKLELK
notes: Mouse hybridoma antibody; also called Mouse122
binding result (human OX40 [2]): binds

B3: Chimeric 119-122 IgG1/kappa monoclonal antibody (antibody, V domains shown)
VH: EVQLVESGGGLVQPGESLKLSCESNEYEFPSHDMSWVRKTPEKRLELVAAINSDGGSTYYPDTMERRFIISRDNTKKTLYLQMSSLRSEDTALYYCARHYDDYYAWFAYWGQGTLVTVSA
VL: DIVLTQSPASLAVSLGQRATISCRASKSVSTSGYSYMHWYQQKPGQPPKLLIYLASNLESGVPARFSGSGSGTDFTLNIHPVEEEDAATYYCQHSRELPLTFGAGTKLELK
notes: Mouse variable regions with human gamma-1 and kappa constant regions (IgG1/kappa); also called Ch119
binding result (human OX40 [3]): binds

B4: Humanized 106-222 IgG1/kappa monoclonal antibody (antibody, V domains shown)
VH: QVQLVQSGSELKKPGASVKVSCKASGYTFTDYSMHWVRQAPGQGLKWMGWINTETGEPTYADDFKGRFVFSLDTSVSTAYLQISSLKAEDTAVYYCANPYYDYVSYYAMDYWGQGTTVTVSS
VL: DIQMTQSPSSLSASVGDRVTITCKASQDVSTAVAWYQQKPGKAPKLLIYSASYLYTGVPSRFSGSGSGTDFTFTISSLQPEDIATYYCQQHYSTPRTFGQGTKLEIK
notes: Human IgG1/kappa; also called Hu222
binding result (human OX40 [4]): binds

Continued, values first:

binding result (human OX40 [3]): binds
B5: Humanized 119-122 IgG1/kappa monoclonal antibody (antibody, V domains shown)
VH: EVQLVESGGGLVQPGGSLRLSCAASEYEFPSHDMSWVRQAPGKGLELVAAINSDGGSTYYPDTMERRFTISRDNAKNSLYLQMNSLRAEDTAVYYCARHYDDYYAWFAYWGQGTMVTVSS
VL: EIVLTQSPATLSLSPGERATLSCRASKSVSTSGYSYMHWYQQKPGQAPRLLIYLASNLESGVPARFSGSGSGTDFTLTISSLEPEDFAVYYCQHSRELPLTFGGGTKVEIK
notes: Human IgG1/kappa; also called Hu119

binding result (human OX40 [2]): binds
B6: mouse anti-human OX40 monoclonal antibody 106-222 (antibody, V domains shown)
VH: QIQLVQSGPELKKPGETVKISCKASGYTFTDYSMHWVKQAPGKGLKWMGWINTETGEPTYADDFKGRFAFSLETSASTAYLQINNLKNEDTATYFCANPYYDYVSYYAMDYWGHGTSVTVSS
VL: DIVMTQSHKFMSTSVRDRVSITCKASQDVSTAVAWYQQKPGQSPKLLIYSASYLYTGVPDRFTGSGSGTDFTFTISSVQAEDLAVYYCQQHYSTPRTFGGGTKLEIK
notes: Mouse hybridoma antibody; also called Mouse222

binding result (human OX40 [4]): binds
B7: Chimeric 106-222 IgG1/kappa monoclonal antibody (antibody, V domains shown)
VH: QIQLVQSGPELKKPGETVKISCKASGYTFTDYSMHWVKQAPGKGLKWMGWINTETGEPTYADDFKGRFAFSLETSASTAYLQINNLKNEDTATYFCANPYYDYVSYYAMDYWGHGTSVTVSS
VL: DIVMTQSHKFMSTSVRDRVSITCKASQDVSTAVAWYQQKPGQSPKLLIYSASYLYTGVPDRFTGSGSGTDFTFTISSVQAEDLAVYYCQQHYSTPRTFGGGTKLEIK
notes: Mouse variable regions with human gamma-1 and kappa constant regions (IgG1/kappa); also called Ch222
